Measurements as given in doi:10.1101/2025.09.09.675085 (bioRxiv, 2025).
Like-named read-outs stand apart in the source and are kept apart here.

Columns and labels:
crystal structure [1] = molecular target: the molecule itself; assay: crystal structure
crystal structure [2] = molecular target: the molecule itself; assay: crystal structure; remark: listed apart in the source

B1: Selenomethionine-labelled tagless TipA (residues 26-572) (natural protein, Bdellovibrio bacteriovorus HD100, UniProt Q6MK73 26-572, looked up)
chain: ITDANPQIANKHLMPNAVRVQITQRGMKYFDNRLSDILGNLGVKLDEGYFPAMSYTAEKPINMDDFMDANPEMVKMYQQVRGLLTQWLVGFSMNDHQPTIEIGESGYVAKFSRFGLVTDELLMEALGKRDGAILAIELEVKKLTISTQSVVAWDTQNEFLGKAGFEDVTLQAADEEMPLKIRLPFYLRMNAMGGLEFEALEISNNFDSIPLGLKYGRLIVPQFAVEVNGKKFYVNNAELEKLFQAQAPMILEKVRGSIGDFARTQLPAMLNQKAKEFLGGSLEQVQDMAAPGQEPTDTRPAFKWGLQLQNLNLKKSLNVDLTTYVEDPVNSRSAPVKSHASRGAPTFNAVAQENYDIGLSVDRALINRVLQLAFERRNFEQIKQSDGSVLKLVATPLIDYVKTPAGVAVKPTETFVKLRVSVEIQPGSMFLKKTIVVDFDIIAKLRQLSDKTGMQMLLHSIDTDSLYLDDKYISVAGKLFKGKVREGVKDELKKRSANWATTEESLPGGLPLPPQILGIKLDINRVMMDPNGHLIMYLDYAKTGANK
modifications: selenomethionine-labelled
Question: How did the “stoichiometry N” value (crystal structure [1]) turn out when B1 was run?
Answer: 2

B2: TipA-His (TULIP invasion protein A, Bd2538, residues 26-572 with C-terminal octa-His tag) (natural protein, Bdellovibrio bacteriovorus HD100, UniProt Q6MK73 26-572, looked up)
chain: ITDANPQIANKHLMPNAVRVQITQRGMKYFDNRLSDILGNLGVKLDEGYFPAMSYTAEKPINMDDFMDANPEMVKMYQQVRGLLTQWLVGFSMNDHQPTIEIGESGYVAKFSRFGLVTDELLMEALGKRDGAILAIELEVKKLTISTQSVVAWDTQNEFLGKAGFEDVTLQAADEEMPLKIRLPFYLRMNAMGGLEFEALEISNNFDSIPLGLKYGRLIVPQFAVEVNGKKFYVNNAELEKLFQAQAPMILEKVRGSIGDFARTQLPAMLNQKAKEFLGGSLEQVQDMAAPGQEPTDTRPAFKWGLQLQNLNLKKSLNVDLTTYVEDPVNSRSAPVKSHASRGAPTFNAVAQENYDIGLSVDRALINRVLQLAFERRNFEQIKQSDGSVLKLVATPLIDYVKTPAGVAVKPTETFVKLRVSVEIQPGSMFLKKTIVVDFDIIAKLRQLSDKTGMQMLLHSIDTDSLYLDDKYISVAGKLFKGKVREGVKDELKKRSANWATTEESLPGGLPLPPQILGIKLDINRVMMDPNGHLIMYLDYAKTGANK
Question: With B2 as the protein, how does the “stoichiometry N” value (crystal structure [2]) read?
Answer: 2
